Reference: the RNAGym collection of RNA variant scans (doi:10.7554/elife.90254)

B1: LINE1-full (parent)
chain: UACGUAGGUGGUUUUCCCCUGAUAGUGCUAAGGGGGCCUGGAAGUUUGGACUGGGCAGAGCUCAACACAGCGUGGCAAAGUGGCUGUGGCUAGACUGCCUCUCUGGAUUCCUCGUCACUCAGCAGGGCAUCUCUGAGAGAAAUGCC

Variants of: B1
Assay: self-cleavage, relative activity (ratio to wild type); higher = more cleavage; in vitro, sequencing; the parent is a self-cleaving ribozyme
For U52A G75U, the self-cleavage was 0.45.
A50U G70C showed a self-cleavage of 0.
Variant G55A C111U has a self-cleavage of 0.3.
With U52C U62C the self-cleavage was 0.03.
Variant U52C U62A has a self-cleavage of 0.08.
U52G U102C gave a self-cleavage of 1.87.
G54A C84U showed a self-cleavage of 0.08.
Variant G54C U81A has a self-cleavage of 0.4.
For G55C C76A, the self-cleavage was 0.1.
U52C C99U showed a self-cleavage of 0.64.
Variant U52C C99A has a self-cleavage of 0.27.
U52C A65U gave a self-cleavage of 0.19.
With G53U U104C the self-cleavage was 2.38.
With G53A A107G the self-cleavage was 1.28.
U52C A92G showed a self-cleavage of 0.1.
For A50U U62C, the self-cleavage was 0.04.
Work on U52C U143A yielded a self-cleavage of 1.84.
For A50U C110A, the self-cleavage was 1.53.
G55A C95U gave a self-cleavage of 0.11.
G55C U108C showed a self-cleavage of 0.18.
C51A U115C showed a self-cleavage of 1.5.
U52A U112A showed a self-cleavage of 0.8.
Work on G54C U96C yielded a self-cleavage of 0.03.
For G53U G70C, the self-cleavage was 0.14.
Work on G53U G60U yielded a self-cleavage of 0.03.
G53U U81A showed a self-cleavage of 1.52.
For G53A A77G, the self-cleavage was 1.82.
In the case of G55A U81A, the self-cleavage is reported as 0.08.
C51U U81C showed a self-cleavage of 1.57.
Variant G55A A94G has a self-cleavage of 0.2.
With U52C C56U the self-cleavage was 0.11.
In the case of U52C A67U, the self-cleavage is reported as 0.16.
G54A U119C showed a self-cleavage of 1.35.
G53U A65C gave a self-cleavage of 0.07.
U52A U119A showed a self-cleavage of 1.47.
U52A U119C showed a self-cleavage of 1.48.
Variant C51A A141G has a self-cleavage of 1.75.
Variant U52A U85C has a self-cleavage of 0.2.
Variant G54A U87C has a self-cleavage of 0.1.
G54A U87A showed a self-cleavage of 0.06.
G54A A77G showed a self-cleavage of 1.02.
For G54C C61U, the self-cleavage was 0.05.
With U52G A79G the self-cleavage was 1.31.
U52C C113A gave a self-cleavage of 0.99.
Work on U52C U91A yielded a self-cleavage of 0.49.
In the case of U52C U91C, the self-cleavage is reported as 0.67.
Work on A50U U143C yielded a self-cleavage of 1.16.
G53A U134G gave a self-cleavage of 0.56.
In the case of G53U U130A, the self-cleavage is reported as 1.53.
G54U A92G gave a self-cleavage of 0.08.
Work on C51U A59G yielded a self-cleavage of 0.09.
In the case of G53C A136G, the self-cleavage is reported as 0.36.
For U52A C146A, the self-cleavage was 1.16.
With U52G G80C the self-cleavage was 0.97.
U52C U87C showed a self-cleavage of 0.11.
For G53U A141G, the self-cleavage was 1.58.
In the case of U52C U102A, the self-cleavage is reported as 0.87.
For U52C U102C, the self-cleavage was 1.14.
U52A G114C gave a self-cleavage of 1.34.
U52A U102C gave a self-cleavage of 0.88.
In the case of C51U U115C, the self-cleavage is reported as 1.98.
Work on U52A yielded a self-cleavage of 1.34.
Variant U52C has a self-cleavage of 1.24.
Variant U52G has a self-cleavage of 1.45.
U52C G139A gave a self-cleavage of 0.78.
Variant C51U A121G has a self-cleavage of 1.85.
In the case of A50U A142G, the self-cleavage is reported as 1.01.
U52C C84G showed a self-cleavage of 0.
G54A U109A showed a self-cleavage of 0.35.
G55A A138G gave a self-cleavage of 0.51.
Variant U52C U104C has a self-cleavage of 1.1.
In the case of U52C U104A, the self-cleavage is reported as 1.02.
Variant U52C A94G has a self-cleavage of 0.24.
In the case of G53U U108C, the self-cleavage is reported as 1.56.
For G54U A69G, the self-cleavage was 0.17.
For C51U U85A, the self-cleavage was 0.09.
In the case of G54A A141G, the self-cleavage is reported as 0.8.
Work on U52A A117U yielded a self-cleavage of 1.35.
With U52A A117G the self-cleavage was 1.43.
Work on G53A U109C yielded a self-cleavage of 0.27.
U52C G54A gave a self-cleavage of 0.74.
In the case of G54U U143C, the self-cleavage is reported as 1.07.
With U52A A129U the self-cleavage was 1.73.
For C51U U62C, the self-cleavage was 0.05.
In the case of U52C A107G, the self-cleavage is reported as 1.
For U52A G72A, the self-cleavage was 1.55.
In the case of U52C G53A, the self-cleavage is reported as 0.6.
U52G U96C gave a self-cleavage of 0.55.
Variant G54A A136G has a self-cleavage of 0.62.
Variant G54A A136U has a self-cleavage of 0.67.
For U52C G83A, the self-cleavage was 0.53.
For C51U A69G, the self-cleavage was 0.66.
With C51U A69U the self-cleavage was 0.04.
A50U G86A gave a self-cleavage of 0.06.
U52A A124G gave a self-cleavage of 1.07.
U52A A124U gave a self-cleavage of 1.15.
For C51U U130C, the self-cleavage was 1.4.
In the case of G54U U104C, the self-cleavage is reported as 1.28.
With U52C C98A the self-cleavage was 0.1.
In the case of U52C U112C, the self-cleavage is reported as 1.5.
With G54A U143A the self-cleavage was 0.45.
In the case of G54C U143A, the self-cleavage is reported as 1.3.
U52A C113U gave a self-cleavage of 1.41.
U52A A78U gave a self-cleavage of 2.37.
Work on U52A A78G yielded a self-cleavage of 1.43.
With U52A C110U the self-cleavage was 1.23.
For U52A C110A, the self-cleavage was 1.66.
With U52A C110G the self-cleavage was 1.15.
Variant G54A A129G has a self-cleavage of 0.76.
Variant G54A A129U has a self-cleavage of 0.4.
With G54A G83A the self-cleavage was 0.52.
Variant G53A A124G has a self-cleavage of 0.77.
In the case of C51U A94G, the self-cleavage is reported as 0.22.
With U52C C116U the self-cleavage was 1.39.
Variant U52A U100C has a self-cleavage of 1.96.
C51U G137U gave a self-cleavage of 1.25.
U52C U81C gave a self-cleavage of 1.08.
In the case of U52C U81G, the self-cleavage is reported as 1.31.
With U52C A64G the self-cleavage was 0.34.
Variant U52C A64U has a self-cleavage of 0.45.
With G55C C120U the self-cleavage was 0.27.
In the case of G54A G82A, the self-cleavage is reported as 0.9.
With G53C A65U the self-cleavage was 0.2.
Work on G53A U87C yielded a self-cleavage of 0.18.
Work on U52A U96A yielded a self-cleavage of 0.07.
In the case of U52A U96C, the self-cleavage is reported as 0.15.
Variant G55C A77U has a self-cleavage of 0.06.
In the case of A50U U115C, the self-cleavage is reported as 1.17.
Work on U52A C128U yielded a self-cleavage of 1.38.
G54A A121G showed a self-cleavage of 0.51.
With G54A A121C the self-cleavage was 1.05.
Work on U52C U85A yielded a self-cleavage of 0.13.
U52C U85C gave a self-cleavage of 0.31.
G55A A124U gave a self-cleavage of 0.19.
For U52A U62C, the self-cleavage was 0.04.
Variant U52A U62A has a self-cleavage of 0.05.
G53U A107G gave a self-cleavage of 1.08.
In the case of C51U A64U, the self-cleavage is reported as 0.46.
In the case of G54A U100C, the self-cleavage is reported as 0.31.
G54A U100A gave a self-cleavage of 0.16.
In the case of G54U A136G, the self-cleavage is reported as 1.
With G54A A64G the self-cleavage was 0.13.
In the case of C51U A77G, the self-cleavage is reported as 2.03.
U52C C71U showed a self-cleavage of 0.7.
For C51U U134C, the self-cleavage was 1.74.
Variant G54U G105A has a self-cleavage of 0.87.
C51U A142U showed a self-cleavage of 0.87.
For U52C A138C, the self-cleavage was 1.62.
In the case of U52C U132C, the self-cleavage is reported as 1.75.
U52G U115C showed a self-cleavage of 1.71.
U52G A59G showed a self-cleavage of 0.34.
Work on G55C A117C yielded a self-cleavage of 0.42.
Variant C51U U132C has a self-cleavage of 0.69.
U52C U115A gave a self-cleavage of 1.34.
U52C A69U gave a self-cleavage of 0.1.
U52C A69G gave a self-cleavage of 0.11.
For G53U A64U, the self-cleavage was 0.45.
With U52G C118U the self-cleavage was 2.3.
For U52A U130G, the self-cleavage was 1.24.
In the case of U52C G89A, the self-cleavage is reported as 0.05.
G54A A78U showed a self-cleavage of 0.79.
G54A A117G gave a self-cleavage of 0.52.
With G54U A138U the self-cleavage was 1.01.
For G53U U112C, the self-cleavage was 1.31.
Variant G54A U132C has a self-cleavage of 0.53.
Variant G53A A69U has a self-cleavage of 0.07.
Variant U52G U87G has a self-cleavage of 0.59.
